Results: the supplement of paper PMC12764529
± gives the half width of the 95% confidence interval.

Legend:
[1] = folding stability dG unfold (combined trypsin and chymotrypsin); higher = more stable
In short: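 K50 was inferred by Bayesian fitting of sequencing counts obtained after protease digestion of designed mini-proteins. Unfolding free energy was derived by comparison with a sequence-predicted unfolded-state K50 and a shared folded-state K50, for each protease or both combined. The mini-proteins were under 80 residues, had no cysteine, were carried in a PA-tagged cDNA display construct, and were kept only if AlphaFold2 dimer inter-PAE exceeded 15.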

[2] = folding stability dG unfold from chymotrypsin proteolysis; higher = more stable
Method: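 Folding stability of de novo designed mini-proteins (<80 aa, no Cys; designed by TrROS, TrMRF, ProteinMPNN and the joint model) was measured by cDNA display proteolysis with trypsin and chymotrypsin. Each protease was used at 11 concentrations in a threefold dilution series plus a no-protease condition. K50 was inferred by Bayesian fitting of sequencing counts, and dG unfold was derived against a sequence-predicted unfolded-state K50 (Tsuboyama et al. method). Sequences shown include variable-length N-terminal GS-type padding (SAGGSAGG...) inside a display construct carrying a PA tag. Rows were kept only if the AF2 dimer inter-PAE was >15, to exclude likely homo-oligomers.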

Row | Sequence | folding stability dG unfold [1] [kcal/mol] | folding stability dG unfold [2] [kcal/mol]
1 | SMTIKELLKAHPGQPVEDLAKRIMDEMNANFPNGMPIKINLEYDPGGIKVDVEMWNNDKPQTDEFTIRPDSA [r9_805_TrROS] | -0.000922 ± 0.15 | 0.327 ± 0.091
2 | SAGGMTTTTTLEVAPDTPYEAALAEIEAALAAAAAGRPVASSPVAARPGGARTLPLVVTDGAVTALGSAGGS [r8_7_JUSTAS] | 0.35 ± 0.07 | 0.954 ± 0.041
3 | SAGGKKVIIPFKSPEQVKDWLENAPPGHDKVEIFSPETGYMAEFEVDPKENKIKEIKWERFDPDDGMFSAGG [r13_945_TrROS] | -0.372 ± 0.46 | 0.0373 ± 0.28
4 | SAGGMGVRVEEKVLATSESSTPDGTPVTFTETETKITLPPGTVVTVKKLLETGGGGRKVLEETTSPLASAGG [r13_898_JUSTAS] | -0.295 ± 0.14 | 0.092 ± 0.039
5 | SAPVRTVTLNVPVERDAAGNLVPVSPEEIVAELEKEGYPREEIEVKNVTETTIPVTIEVDLVNGKMRVLGSA [r9_225_JUSTAS] | < -1 | -0.326 ± 0.61
6 | SAGGSAGGSAGGMIKVLEKKEFTPPTGGKEYELKTLDESNGTESIIKFPKEEYKNLKIPSAGGSAGGSAGGS [r10_326_JUSTAS] | 0.145 ± 0.2 | 0.681 ± 0.12
7 | SAGGSAGGSAGGSKKKKKKPKKVLLVRNKKTKKLYVFKTKEEAKKAGFEIVKDGKIKKKSAGGSAGGSAGGS [r4_306_TrROS_Hall] | 0.0938 ± 0.41 | 0.258 ± 0.55
8 | SAGGSAGGSAGGLLRAPDGSTAIVVRDASPETVARALHELNPNAVIVVAPIPNVAVIYLDSAGGSAGGSAGG [r7_370_TrMRF] | -0.575 ± 0.51 | 0.178 ± 0.1
9 | SAGGMLSRESTDPGPGRRTLTREEPLPDGTVPVTVTTESPDPSVTTVETRLVFPGPAVETPTRTAAPSAGGS [r16_684_JUSTAS] | 0.281 ± 0.052 | 0.78 ± 0.038
10 | SAGGMITLEEPELDPSRPVTRVKVLTEIPAPGGVPVVVETTYTDTRAPGDPSVTVVTSTTTVVPGAAGSAGG [r13_131_JUSTAS] | -0.834 ± 0.27 | -0.0242 ± 0.055
11 | SADTLTVSDLMHKLMEEERKKNPEPWSPEDMQEWAKTAARKLADKEGIPIKDVEVEPTDGYPSITVKVPSAG [r14_147_TrROS] | < -1 | -0.691 ± 0.73
12 | MTEKKEESLGEKKRITTTKPQEDGNPVVTERIIDPNGTIEKVIVKKSSPNKPTTEELPPFSTSNKEIVEKLS [r1_301_JUSTAS] | -0.821 ± 0.4 | -0.691 ± 0.14
13 | SAGGSAGGSAGGGSVTRLPDGVTTVVTFPDGSTVTVPAGVPYTDPNAATPVTVSPVPPALSAGGSAGGSAGG [r7_968_JUSTAS] | < -1 | 0.119 ± 0.1
14 | SPAPPMRIDNIKPEKEDPNGDERKYRVYWQGPNGRPYHYEGPLEELEDMLDEDNIDPDNFWPGDEITIKVSA [r9_1078_TrROS] | 0.421 ± 0.31 | 0.869 ± 0.12
15 | SAGGSAGGSAGGMNTPIVVETEDLPSSRPVEEVKAEAAPKGYTEVKAYPDGTVVITKVRSSAGGSAGGSAGG [r11_961_JUSTAS] | 0.164 ± 0.21 | 0.607 ± 0.047
16 | SAGGSAGGSPNQDFKVKVKIKEFNPGNGHIRIDVEVEGDNPQVQDFAKGIAEGFGFPVEVEPISAGGSAGGS [r20_157_TrROS] | -0.0925 ± 0.14 | 0.34 ± 0.038
17 | SAGGSAMSQEEIENKPIEEIAKAILENFPGNTKVEHEFTFKDGSKLRIVVELPEDGEPKIEAEPIGSAGGSA [r15_857_TrMRF] | -0.452 ± 0.56 | -0.0162 ± 0.39
18 | SAGGSAGGSAGGSMVPVPVNILKLAPGGIPLGTYPVEPLRKEGISPEEFAKKNGYIISGSAGGSAGGSAGGS [r10_153_JUSTAS] | -0.827 ± 0.26 | -0.0261 ± 0.3
19 | SAGEYKVEEKDGKLYVTYPNGEKKEVEVKPAPPPVVTIKVKSVEELKALAEELNLEITEISEDTVVVKFSAG [r5_328_TrROS_Hall] | -0.643 ± 0.62 | 0.0799 ± 0.38
20 | SAGGSAGGKEVKVTLEYDEETGTLTLTVETPDGYVFKLEITFEKDEDGNLKVTIKLEVIPLEDLSAGGSAGG [r6_537_TrROS_Hall] | 4.39 ± 0.61 | 4.45 ± 0.21
21 | SAGGEEPKRKTVEVPAGQPISELLDALKQYDEVQIRMGNGEEHEIPPNDPPDLEDLPLPPGNTFEIEVSAGG [r13_399_TrROS] | < -1 | -0.126 ± 0.12
22 | SMYVFSTGSKPSSEQLLEKLEKVPNLPKELIKKNTIISDTESSPEIVIPKEVYDKIKKENPEAVKVIESGSA [r9_160_JUSTAS] | < -1 | -0.991 ± 0.56
23 | SAGGSAGGSAGWNIEPKPEPERDPDGNPQPRMEIKIRVPPPTAEQAQEWAKENGLPVTVYSAGGSAGGSAGG [r17_114_TrROS] | < -1 | -0.0462 ± 0.17
24 | SAGGSAKTIVIPAEDLTPEEIKALAEENKDKIVIYNKKTKKVVTIEVKDGKITKVEEFPVSEEELKSAGGSA [r15_751_TrROS_Hall] | -0.256 ± 0.67 | 0.173 ± 0.3

Row | Sequence | folding stability dG unfold [1] [kcal/mol] | folding stability dG unfold [2] [kcal/mol]
25 | SAGGSSRTISIPVSPSLSPEEVAELIKKEVKKMGEDKEVKVLSVDPSGRIDVLVGDEPITVDASLPSAGGSA [r2_102_JUSTAS] | 0.235 ± 0.2 | 0.623 ± 0.1
26 | SAGGSAGGSAGMETRLIAVLEDGEAVFEDGGTLITVPADEDVADIPDGGGLGTIYIPKDGSAGGSAGGSAGG [r11_647_TrMRF] | -0.0625 ± 0.17 | 0.53 ± 0.036
27 | SAGGSAGGSAGGGRVLRLADGKWRLVELPDGSVVLVPENVPVLDPEAKEPVLVAPVLPLDSAGGSAGGSAGG [r7_968_TrMRF] | 0.223 ± 0.06 | 0.938 ± 0.073
28 | SAGGSASTTPIKFPNGFEVTKIEEGKGLVYIKYSPENPEILEKLGVEALETNENEVIVPREAIEKKSAGGSA [r15_984_JUSTAS] | -0.993 ± 0.36 | -0.634 ± 0.28
29 | SAGGSAGGSAGGLKELADKLNPGFEIRVENIEPTPGPVRINVRAPNEGVPRSIPIDPDDISAGGSAGGSAGG [r7_303_TrROS] | 0.479 ± 0.043 | 0.993 ± 0.018
30 | SAGGSAGGSAGGDPDLPVYSVSPTTIPAPPGQDSPTPGPNSVTVDANGTATVTETSVSLVSAGGSAGGSAGG [r7_556_JUSTAS] | < -1 | -0.6 ± 0.2
31 | SAGGSAGGSAGKKTLYVIKIELSDEQLKEAKKEGKPLKLKAEIVEVKPVKVEVKKEYKKESAGGSAGGSAGG [r11_26_TrROS_Hall] | -0.167 ± 0.56 | 0.586 ± 0.31
32 | SSSSLLKSSTEEVEVSTTFTKTSPDGSLTPVGTTTEVVTKTVKTVPKEILEKLKKEKEKPLPPEGNLGYLSA [r9_1192_JUSTAS] | 0.000763 ± 0.41 | 0.495 ± 0.36
33 | SAGGISVEIYPPNGKKVELEGDTIPELMDKFPPGGNYVIKIEQPHVNPGNGKKQPMEMEFRVPPDDFSAGGS [r16_806_TrROS] | -0.697 ± 0.33 | -0.202 ± 0.23
34 | SITISPDKVYTLKNVRVGDYEVDGLVAVAGPDGTVYVPADVRPVVVPPPAPPVGLDPVDGGVYDITDPSVSA [r9_603_TrMRF] | < -1 | -0.965 ± 0.61
35 | SAGGSAGGPPPVRVTIETETTTTFPNGTPRTTTNTVVLDAPEEEAEAAVAAIPASVVKSVARTGSAGGSAGG [r6_985_JUSTAS] | -0.187 ± 0.24 | 0.486 ± 0.057
36 | SAGGSAGGSVYLDPAVLAELEALRQAGLRVAEVREERVEVEGGPPRRVDVRAVVVDLPPEALAASAGGSAGG [r6_771_JUSTAS] | -0.11 ± 0.18 | 0.621 ± 0.056
37 | SAGGSAGGSAGGSKPDPEIEQERNPEKGYRTIKIEFPDKPRTIMVKNLPPDDPALRDAFSAGGSAGGSAGGS [r4_328_TrROS] | -0.349 ± 0.18 | -0.0426 ± 0.23
38 | SAGGDKLGKPLGGKPVTFDISKEELSYNPSNGTWSKSVVTTPRTVFYPPDAEPDPAVFASGAGSVTLASAGG [r13_753_JUSTAS] | -0.184 ± 0.077 | 0.281 ± 0.091
39 | SAGGSAGGSAPNIRAKIEPKPDPGGPKLTIDVEDPDNPELPAEEVAKALEEEFPPDKIEPVSAGGSAGGSAG [r3_226_TrROS] | < -1 | -0.7 ± 0.083
40 | SAGGSAGGSAGGSKTKTISFPMPWDDIPELAEELKDKGPVTIEHQDPDGNPREFTIPPDSAGGSAGGSAGGS [r4_341_TrROS] | 0.0258 ± 0.19 | 0.484 ± 0.13
41 | SAGGSAGGSAGGSDPSATLRVTLTPRTTRTRLVTDEDGVERTYTFGGDGTLSVSLLPSGSAGGSAGGSAGGS [r4_162_TrMRF] | 0.258 ± 0.091 | 0.647 ± 0.15
42 | SAGGSAGGSMNVKKVESEKDTGDGSTLTTNTVELPSNIIIVEPVLTPPSGNPQTTTKILPKGLSAGGSAGGS [r12_407_JUSTAS] | -0.5 ± 0.18 | -0.157 ± 0.12
43 | SGMDVFVASDPGPSYLRAEARLPGGESRVLTSGPPEEARALVERLAAEEDPAMAVRRVEEVPPGELPPELSA [r9_137_JUSTAS] | < -1 | -0.38 ± 0.18
44 | SAGGSAGGSAGGSNPNKPKEFYRIEYTHGGKPHTHMFPPNEPIPPGPNMKVDPFPADDLSAGGSAGGSAGGS [r4_107_TrROS] | -0.688 ± 0.69 | -0.131 ± 0.23
45 | SAGGGSMVEKTISTTDPKYVKILKKLEEAPEDEVVTIKEPNKDIEVLSFDKVDDNYKLLMKLPPSILSAGGS [r16_404_JUSTAS] | -0.773 ± 0.46 | -0.454 ± 0.38
46 | SAGGSAGGSAKSALDQMKGQKFTFYHPGGEQPVPITIEPDKDDNFVVKFPNKKPYPMPIDDISAGGSAGGSA [r18_169_TrROS] | < -1 | -1.29 ± 0.81
47 | SAGGSAGGSELITLTEKASLAVGELNLPSPEELAKKKYPDVKPKNITVSTKPGEGLVTVTVDGKSAGGSAGG [r6_81_JUSTAS] | -0.222 ± 0.19 | 0.207 ± 0.091
